Consider 15 compounds from patent US20110021974A1, “RETINITIS PIGMENTOSA TREATMENT AND PROPHALAXIS” (priority 2010, published 2011).

For data set [1] the following is noted: in vivo; cited from earlier work.
Data set [2] in a line: MSM ophthalmic drops in patients. It is filed as in vivo.
From the text: We have used aqueous solutions of MSM filtered, sterilized, and mixed with insulin.
The conditions of data set [3]: cited from earlier work.
The test system of data set [4] is patients with retinitis pigmentosa. Conditions: cited from earlier work.
The subject of a further data set is macular edema. Particulars: in vivo; cited from earlier work.
A short description of data set [5]: Curcumin safety for retina and CNS. Particulars: in vivo. An excerpt: Deferoxamine may modulate expression and release of inflammatory mediators in the retinitis pigmentosa as indicated in Fenton reaction by specific cell types, thus, reduce or stop the damage by our invention. Deferoxamine used with insulin of our invention along with ophthalmic drops can reduce the ROS oxidant damage, arrest, or delay the processes of retinitis pigmentosa. We have used this method to treat the CNS disease with good results. We have used the extract of Turmeric, called curcumin, with insulin as antioxidant with good results.

Data set [6] deals with retinitis pigmentosa. Particulars: administered in a form suitable to obtain therapeutic tissue concentrations; cited from earlier work.
The text on data set [7]:
The present invention formulations contain only 0.10 to 1.00 IU per drop which the dosage can be increased or the dosage can be decreased depending upon the disease states.

The subject of data set [8] is retinitis pigmentosa. Put plainly: Insulin ophthalmic drops in oculopathies including retinitis pigmentosa. It is filed as in vivo. Particulars: used for years. An excerpt: This and other metabolic and therapeutic qualities of the insulin will prevent the development, stop the progression, and curtail or cure the retinitis pigmentosa. I have used insulin ophthalmic drops for various oculopathies, including, retinitis pigmentosa for years with great success.

A short description of data set [9]: Insulin added to anti allergic ophthalmic agents in eye allergy. The data set is classed as in vivo. Conditions: insulin with vasoconstrictors and anti allergic agents such as corticosteroids. An excerpt: Follow the instruction as described in the above EXAMPLE 1. The symptoms of an eye allergy are mild to moderate where allergies can be severe during early spring and the beginning of fall. Self treatment to avoid allergens, to irrigate the eyes with saline (salt solution) and to place the ice packs, and the cold water compresses on eyes which this may not be effective in a severe case. The medical treatment is needed to relieve them. Retinitis pigmentosa associated with severe allergic conjunctivitis. This condition isn't helped by other treatments. Conjunctivitis may benefit from specific allergen immunotherapy (desensitization) which the therapy is usually effective. Most commonly used and prescribed medications are: levocabastine (brand name Livostin); antihistamines (antolozine) together with a medicine that constricts blood vessels (naphazoline, phenylephrine); sodium cromoglycate (4%); non-steroidal anti-inflammatory (NSAID) eye drops; and steroids (hydrocortisone, Dexamethasone, prednisolone). Eye drops containing anti allergic, vasoconstrictors, and cortisone, can be used long term to treat retinitis pigmentosa and allergic conditions. The drops with insulin applied before the use of the above described therapeutic agents.

For data set [10] the following is noted: preliminary studies.
For data set [11], the system named is H2O2 induced lipid peroxidation. Conditions: insulin pretreatment; cited from earlier work.
Data set [12] deals with MCF-7 human breast cancer cells. Conditions: in vitro; cited from earlier work.
The subject of the next data set is photoreceptor cell. Particulars: applied topically to the eyes; in vitro model; cited from earlier work.
The nature of data set [13]: ADT given orally and as eye drops in dry mouth and dry eyes conditions. Conditions: 25 mg orally and nanograms concentration in eye drops. It is filed as in vivo. As for the experimental part:
Follow the instruction as described in the above EXAMPLE 1. Another drug available to treat autoimmune disease related to Sjogren's disease is an organo sulfur compound, anethole dithiolethione (ADT-trade name Sialor, sold over the counter in Canada) with hardly any side effects. The ADT stimulates the secretion of saliva, in patients with autoimmune exocrinopathy (Sjogren's syndrome). Sialor alleviates the symptoms of xerostomia and xeroophthalmia. We have used ADT 25 mg orally and ADT in nanograms concentration in liquid ophthalmic eye drops with successes in these conditions, especially, those on chemotherapy, menopausal women, and chronic smokers with dry mouth and dry eyes conditions.

As for Insulin glulisine, the “Onset of Action in hours” value in data set [1] is “¼-½”.

As for `CS(C)(=O)=O` [MSM, Methylsulfonylmethane], the “vision reported by patients” value in data set [2] (MSM ophthalmic drops, aged, Lyme disease and cancer patients) is “their vision had improved”. Further, the “treatment result in retinitis pigmentosa, dry eye syndrome, glaucoma and other oculopathies” value in data set [2] (aqueous MSM mixed with insulin, as eye drops) is recorded as “good results”. Besides, the solubility in water entry in data set [3] is recorded as “soluble in water”.

As to Insulin glargine, in [1], the “Effective duration of action” value is 18 to 20 h, the “Maximum duration” value is 20 to 24 h, the “Onset of Action” value was 3 to 4 h and the “Peak action in hours” value is 8 to 16 h.

For the compound `CCCCCCCCCCCCCCCC(=O)OC/C=C(C)/C=C/C=C(C)/C=C/C1=C(C)CCCC1(C)C` [vitamin A palmitate], in data set [4] (daily intake of 15000 IU (equivalent to 4.5 mg)), the “progression of retinitis pigmentosa” value is recorded as “can be reduced”.

For `CC(=O)Nc1nnc(S(N)(=O)=O)s1` [Acetazolamide], the “improving the macular edema compared to brinzolamide” value in the data set on macular edema is on record as “more effective”.

On to Insulin aspart, for which the “Onset of Action in hours” value in data set [1] was “¼-½”.

Consider Insulin lispro, for which, in [1], the “Onset of Action in hours” value was “¼-½”.

Insulin detemir: in [1], the “Effective duration of action” value is 14 h, the “Maximum duration” value is roughly 20 h, the “Onset of Action” value is 3 to 4 h and the “Peak action in hours” value is 6 to 8 h.

For `COc1cc(/C=C/C(=O)CC(=O)/C=C/c2ccc(O)c(OC)c2)ccc1O` [Curcumin, curcumin], the “toxicity to the retina or the CNS” value in data set [5] is recorded as “isn't toxic to the retina or the CNS”.

Consider `O=C(O)COc1nn(Cc2ccccc2)c2ccccc12` [bendazac, (1-phenylmethyl-1IH-indazol-3-yl) oxy acetic acid], for which, in the data set on retinitis pigmentosa [6], the “effect on retinitis pigmentosa” value is “improvement in retinitis pigmentosa”.

On to insulin, for which the “blood sugar levels after local application” value in data set [7] (local application incl. scalp, gums, oral and nasal mucosa, conjunctival sac, wounds, tumors) is “did not change the blood sugar levels”. In addition, the hypoglycemic effects entry in data set [7] (ophthalmic insulin drops, applicant's practice) is on record as “never reported the development of a single case of hypoglycemic effects”. Moreover, the “treatment result in oculopathies including retinitis pigmentosa” value in the data set on retinitis pigmentosa [8] was “great success”. In addition, the “relief of the allergic condition” value in [9] was “relieved rapidly”. In addition, the “absorption from the conjunctival sac” value in data set [10] is “rapidly absorbed”. Further, in data set [11], the “H2O2 induced lipid peroxidation” value is recorded as “greatly inhibited”. Also, in [12], the “increase of the cytotoxic effect of methotrexate” value was “up to 10,000 fold”.

For Regular (soluble): short-acting insulin, in data set [1], the “Effective duration of action” value was 3 to 6 h, the “Maximum duration” value is 6 to 8 h and the “Peak action in hours” value was 2 to 3 h.

For brimonidine tartrate, the photoreceptor cell degeneration entry with photoreceptor cell was “can prevent photoreceptor cell degeneration”.

As for vitamin A, the postponement of blindness in data set [4] (vitamin A supplementation) is roughly 10 years.

With anethole dithiolethione [ADT], the “treatment result in dry mouth and dry eyes conditions” value in data set [13] is “successes”.
